The record followed here is the RNAGym collection of RNA variant scans (doi:10.7554/elife.90254).

The chains are these.
B1: LINE1-full (parent)
chain: UACGUAGGUGGUUUUCCCCUGAUAGUGCUAAGGGGGCCUGGAAGUUUGGACUGGGCAGAGCUCAACACAGCGUGGCAAAGUGGCUGUGGCUAGACUGCCUCUCUGGAUUCCUCGUCACUCAGCAGGGCAUCUCUGAGAGAAAUGCC

In the series the parent is B1. The experiment in a line: self-cleavage, relative activity (ratio to wild type); higher = more cleavage; in vitro, sequencing; the parent is a self-cleaving ribozyme.
For G97U U132A, the self-cleavage came to 0.03.
As for A92G G122A, the figure is 0.13.
The result for U96C C120U reads 0.2; that for G97A A117U, 0.17.
Turning to G93U, the self-cleavage came to 0.06.
As for G93C, the figure is 0.05.
The result for G93A reads 0.04; that for U96G G126A, 0.
The result for A92U A129G reads 0.69.
As to A92U A129U, the self-cleavage turned out to be 0.6.
The result for U96A C103A reads 0.06; that for A92U A124U, 1.2; that for C95U U134C, 0.11.
Turning to C95U, the self-cleavage stood at 0.14.
As for C95G, the figure is 0.06.
On to C95A, for which the self-cleavage came out at 0.07.
The result for C98G G125A reads 0.05.
As for A92C A142G, the figure is 0.33; as for U96A A107G, 0.08.
As for U96A A107U, the figure is 0.08.
Turning to C98U C123U, the self-cleavage turned out to be 0.35.
As for U91G A121G, the figure is 0.33; as for G97C G106U, 0.2; as for A92U U132C, 0.83.
The result for A92U U132A reads 0.69; that for A92G G137U, 0.07.
Take A92U U119C: the self-cleavage is 0.87.
The result for U96G U115C reads 0; that for A94U U109A, 0.27.
The result for A92C A138G reads 0.14.
In the case of G93A A117G, the self-cleavage stood at 0.06.
Regarding U96C U143A, the self-cleavage is 0.13.
As for A92G U143A, the self-cleavage was 0.14.
For the variant G93A A129G, the self-cleavage was 0.08.
The result for G93U A107G reads 0.06.
As for C99U C113U, the figure is 0.41; as for A94C C95U, 0.02; as for C99U A117G, 0.4.
Regarding A94G A117U, the self-cleavage was 0.4.
The result for A92G C103U reads 0.03; that for C99U C101U, 1; that for C99A G114A, 0.44.
The result for C99A A107G reads 0.61; that for C95U A141G, 0.07.
For the variant A92C A121U, the self-cleavage is 0.05.
With A94G C131U, the self-cleavage came to 0.17.
As for A94U U108C, the figure is 0.46; as for G97A U104A, 0.06; as for U96C U112C, 0.12.
The result for U96C U112A reads 0.12.
Turning to A92C U130A, the self-cleavage was 0.28.
For the variant A94U A140G, the self-cleavage amounted to 0.23.
The result for G93U A140G reads 0.05.
With U96A C111U, the self-cleavage stood at 0.07.
As for A92U A117G, the figure is 1.46; as for U100A A121G, 1.58.
For the variant A94G C110U, the self-cleavage was found to be 0.32.
The result for A94G C110G reads 0.22; that for A94U C113U, 0.12; that for A92G A140G, 0.15.
The result for G93A U112C reads 0.06; that for C95A U130C, 0; that for U96C G97A, 0.02.
Consider C95U U104C, for which the self-cleavage is 0.54.
In the case of A94G U119A, the self-cleavage amounted to 0.39.
As for A94G U119C, the figure is 0.38.
The result for A94U A136G reads 0.3; that for C98U U115A, 0.44.
The result for A92C U112C reads 0.18; that for G93A A141G, 0.04.
Consider C99A U115C, for which the self-cleavage turned out to be 0.84.
The result for U96A G105A reads 0.04.
On to U96A C123U, for which the self-cleavage came to 0.06.
In the case of U91G A141G, the self-cleavage is 0.06.
The result for A92U U115C reads 0.72; that for A92U U115A, 0.62; that for G93A A140G, 0.06.
Take A92G U130C: the self-cleavage was 0.11.
Turning to G97A G126U, the self-cleavage is 0.07.
Regarding G97A G126A, the self-cleavage was found to be 0.09.
Regarding C99U A129G, the self-cleavage amounted to 0.89.
For G93A C95G, the self-cleavage worked out at 0.04.
For A92G U134C, the self-cleavage worked out at 0.
With C99U U130C, the self-cleavage is 0.69.
With U96A G127U, the self-cleavage was found to be 0.05.
As for A94G A141U, the figure is 0.19.
In the case of U96C G139U, the self-cleavage worked out at 0.14.
For C99U U108C, the self-cleavage was determined as 0.71.
As for U96A U100A, the figure is 0.07; as for G93U G127C, 0.19; as for G97A A136U, 0.11.
Take G97A A121C: the self-cleavage came to 0.12.
As to A94U C133U, the self-cleavage is 0.29.
Regarding A92G A138U, the self-cleavage stood at 0.11.
As for A94G C113U, the self-cleavage amounted to 0.09.
As for A92G U115C, the self-cleavage was 0.08.
The result for U100A A136G reads 1.25; that for U96C G114A, 0.11; that for A92G A107U, 0.09.
For C95U U119C, the self-cleavage came out at 0.22.
Regarding A92U G126A, the self-cleavage came out at 0.41.
In the case of A92G G127A, the self-cleavage was determined as 0.12.
As for A94G A142G, the figure is 0.41; as for C99A C113U, 0.27.
As for U96A U108A, the figure is 0.13.
The result for U96C A140G reads 0.09.
Turning to U100A A140G, the self-cleavage stood at 0.76.
The result for U100A A140U reads 0.57; that for U96C U102A, 0.11.
As for U96C U102C, the figure is 0.12.
On to A92C U104A, for which the self-cleavage is 0.38.
Consider U91G G114C, for which the self-cleavage came to 0.02.
Consider C98A A138G, for which the self-cleavage stood at 0.29.
As for U100A A124C, the figure is 1.28; as for U100A A124U, 0.88.
The result for C99U A124G reads 0.32; that for C99U A124U, 0.42.
The result for U96A A138G reads 0.07.
On to A92U C118G, for which the self-cleavage amounted to 0.37.
For A92G C146U, the self-cleavage is 0.07.
As for A94U A124G, the figure is 0.33; as for A94U A124U, 0.35; as for A94U U112G, 0.42.
Turning to G97A A140U, the self-cleavage stood at 0.02.
As for U96C A107U, the figure is 0.17; as for C99A A138G, 0.88.
Consider A92U U96C, for which the self-cleavage was 0.11.
Consider A92U C120U, for which the self-cleavage stood at 0.78.
As for A94G U102C, the figure is 0.18.
For the variant A92U A141G, the self-cleavage turned out to be 0.96.
The result for G93C C120U reads 0.03; that for U96C C133U, 0.08; that for U96C A121C, 0.09.
As for U96C A121G, the figure is 0.12; as for A94U U96A, 0.08; as for U96C G144A, 0.25.
The result for C99A reads 0.4.
Turning to C99G, the self-cleavage stood at 0.76.
As for C99U, the figure is 0.57.
The result for A94U A121G reads 0.52; that for G97A A107G, 0.13.
For C98A U130C, the self-cleavage amounted to 0.13.
The result for A92U U130A reads 0.67; that for U96G, 0.1.
The result for U96C reads 0.13; that for U96A, 0.07.
As to G97A U108C, the self-cleavage came out at 0.17.
The result for G97A U115C reads 0.3; that for U100A A138G, 1.18; that for U100A A138U, 0.89.
With U96A C110G, the self-cleavage came to 0.09.
The result for U96C U134C reads 0.11; that for C98U A140G, 0.57.
For U91G U119C, the self-cleavage is 0.
In the case of A92G U132C, the self-cleavage was determined as 0.05.
As for C95A U100C, the figure is 0.09; as for C98A, 0.17.
As for C98U, the figure is 0.4; as for C98G, 0.13.
Consider U96A U112C, for which the self-cleavage came to 0.06.
As for U96A U132A, the figure is 0.08; as for U96C C101U, 0.06; as for A94C A117G, 0.22.
In the case of A94C A117C, the self-cleavage is 0.07.
The result for G97A U134C reads 0.07; that for G93U A136G, 0.08; that for A92G A141G, 0.12.
